According to article PMC9841335, “Structure of a bacterial ribonucleoprotein complex central to the control of cell envelope biogenesis” (The EMBO Journal, 2022):
Changes are numbered by the printed parent chain. Numbers in names are those of the source.

B1: RNase E-NTD (residues 1-598, Δ568–582, D346C) (domain or fragment)
chain: not shown
notes: also called mutant RNase E‐NTD; RNase E catalytic domain; source: E. coli BL21(DE3), pET16 vector, purified (IMAC, butyl Sepharose, Superdex 200 SEC)
B2: RapZ (full-length, purified recombinant) (natural protein, E. coli, UniProt P0A894 1-284, looked up)
chain: MVLMIVSGRSGSGKSVALRALEDMGFYCVDNLPVVLLPDLARTLADREISAAVSIDVRNMPESPEIFEQAMSNLPDAFSPQLLFLDADRNTLIRRYSDTRRLHPLSSKNLSLESAIDKESDLLEPLRSRADLIVDTSEMSVHELAEMLRTRLLGKRERELTMVFESFGFKHGIPIDADYVFDVRFLPNPHWDPKLRPMTGLDKPVAAFLDRHTEVHNFIYQTRSYLELWLPMLETNNRSYLTVAIGCTGGKHRSVYIAEQLADYFRSRGKNVQSRHRTLEKRKP
notes: The Strep-tag is cleavable by TEV protease; Construct and procedure follow Gonzalez et al, 2017; In all complexes with RNase E-NTD the sRNA GlmZ was present; also called RapZ tetramer; full‐length RapZ; source: E. coli Rosetta, plasmid pMCSG7, purified (Strep Trap HP, Superdex 200 SEC)
B3: T25-RapZ 4 substitutions (T161A, Y240A, N271A, Q273A; BACTH fusion) (natural protein, E. coli, UniProt P0A894 1-284, looked up)
chain: B2 chain with T161A, Y240A, N271A, Q273A
notes: RapZ, E. coli, with alanine substitutions of Q273, N271, Y240 and T161; source: bacterial two-hybrid fusion (pKT25 plasmid) in E. coli BTH101

What was measured:
[1] = molecular target: the molecule itself; assay: cryo-EM structure; RNase E-NTD (D346C), full-length RapZ and full-length GlmZ RNA at 5:25:10 μM in 25 mM HEPES pH 7.5, 300 KCl, 1 mM MgCl2, cross-linked with 0.01% glutaraldehyde, Superose 6 SEC, graphene oxide-coated grids; binary RapZ:GlmZ and ternary classes from one dataset
[2] = molecular target: B1; assay: as above; conditions: both partners purified
[3] = molecular target: T1, RNase E-NTD (wild type, BACTH fusion) (E. coli, UniProt P21513 1-529); assay: two-hybrid; adenylate cyclase-based bacterial two-hybrid (BACTH) in E. coli BTH101, pKT25 (T25-RapZ) and pUT18C-type plasmids, LB with 1 mM IPTG, β-galactosidase activity; endogenous GlmZ present in the cell; conditions: partners not purified
T1 construct: RNase E, E. coli, N-terminal catalytic domain (NTD); The text calls the two-hybrid partner 'RNase E' and its variants 'RNase E‐NTD variants'; also called RNase E wild type; source: bacterial two-hybrid fusion (pUT18C-type plasmid) in E. coli BTH101

Row | Binder | stoichiometry N [1] | stoichiometry N [2] | fold decrease of the BACTH signal against wild-type RapZ [3] [fold]
1 | B1 | 4 |  | 
2 | B2 | 4 | 2 RapZ tetramers per RNase E-NTD tetramer | 
3 | B3 |  |  | 2
